pKd: −log10 of the molar value.
Biological target: EGFRvIII (on U87-EGFRvIII cells) del30-297 (UniProt P00533)
Assay: cell ELISA
Settings: apparent Kd, fixed U87-EGFRvIII cells, 3% BSA in PBST block (PBS, 0.01% Tween 20, pH 7.4), 37 C 40 min, SELEX binding buffer: PBS, 5 mM MgCl2, glucose, yeast tRNA, salmon …

| Sequence | pKd |
| --- | --- |
| ATCCAGAGTGACGCAGCATTTTGACGCTTTATCCTTTTCTTATGGCGGGATAGTTTCGTGGACACGGTGGCTTAGT [U2] | 8.47 |
| ATCCAGAGTGACGCAGCATGAATCTTTTCTTTTGGTTTTGATATTTATAGTTGGTGAATGGACACGGTGGCTTAGT [U8] | 8.36 |

Source: article PMC3948368
